# Numbering of substitutions follows the chain as printed.
# T1: 32-mer MUC1 peptide (human)
# T1 construct: also called MUC1 peptide antigen (32mer cys); MUC1 peptide (32 mer cys)
# T1 peptide: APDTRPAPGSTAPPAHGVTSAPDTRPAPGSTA
# T2: MUC1 peptide (15 aa+cystein, APDTRPAPGSTAPPAC) (human)
# T2 construct: If the listing entry has only 15 residues, a C-terminal Cys must be added; Immobilized on the SPR chip; also called synthetic MUC1 peptide
# T2 peptide: APDTRPAPGSTAPPAC
# B1: R764-B7 (HT186-B7 IgG) (antibody, V domains shown)
# VH: QMQLVQSGAEVKKPGASVKVSCKASGYTFTGHYMHWVRQAPGQGLEWMGWIDPVTGGTKYAQNFQGWVTMTRDTSIRTAYMELSRLRSDDTAMYYCAREVTGDRGQFDKWGQGTLVTVAS
# VL: QSVLTQPPSVSVAPGKTARITCGGNNIGSKSVHWYQQKPGQAPALVIYYGSYRPSGIPERFSGSNYGNTATLTIRRVEAGDEADYYCQVWDSSSDWVFGGGTKLTVLG
# notes: Human IgG1, lambda, produced in YB2/0 cells
# B2: R764-D11 (HT186-D11 IgG) (antibody, V domains shown)
# VH: B1 VH with G8E, V11L, T28S, M81L
# VL: B1 VL with Y52N, Y66S, R75S
# notes: Human IgG1, lambda, produced in YB2/0 cells; also called R764 HT186-D11
# B3: HT186-B7 scFv (scFv)
# scFv: QMQLVQSGAEVKKPGASVKVSCKASGYTFTGHYMHWVRQAPGQGLEWMGWIDPVTGGTKYAQNFQGWVTMTRDTSIRTAYMELSRLRSDDTAMYYCAREVTGDRGQFDKWGQGTLVTVASASTKGPSVKLEEGEFSEARVQSVLTQPPSVSVAPGKTARITCGGNNIGSKSVHWYQQKPGQAPALVIYYGSYRPSGIPERFSGSNYGNTATLTIRRVEAGDEADYYCQVWDSSSDWVFGGGTKLTVLGQPKAAPSVTLFPPS
# notes: scFv as VH-truncated CH1-linker-VL-truncated CL, made in the E. coli periplasm and purified by its His-tag; not shown: C-terminal His-tag used for purification and detection
# B4: HT186-D11 scFv (scFv)
# scFv: B3 scFv with G8E, V11L, T28S, M81L, A121S, Y192N, Y206S, R215S, P261S
# notes: as for B3
# B5: HT186-G2 scFv (scFv)
# scFv: RMQLVQSGAEVKKPGASVKLSCKASGYTFAGHYMHWVRQAPGRGLEWMGWIDPVTGGTKYAQNFQGWVTMTRDTSIRTAYMELSRLRSDDTAMYYCAREVTGDRGQFDKWGQGTLVTVASASTKGPSVKLEEGKFLEAHVQSVLTQPPSVSVAPGKTARITCGGNNIGSKSVHWYQQKPGQAPVLVIYYGSDRSSGIPERFSGSNSGNTATLTISRVEAGDEADYYCQVWDSSSDWVFGGGTKLTVLGQPKAAPSVTLFPPS
# notes: as for B3
# B6: HT200-3A-C1 scFv (scFv)
# scFv: QMQLVQSGAEVKKPGASVKVSCKASGYTFTGHYMHWVRQAPGQGLEWMGWIDPVTGGTKYAQNFQGWVTMTRDTSIRTAYMELSRLRSDDTAMYYCAREVTGDRGQFDKWGQGTLVTVASASTKGPSAKLEEGEFSEARVQSVLTQPPSVSMAPGETARITCGGNNIGSKSVHWYQQKPGQAPVLVIYNDSDRPSGIPERFSGSNSGKTATLTISRVEAGDEADYYCQVWDSSIDWVFGGGTKLTVLGQPKAAPSVTLFPPS
# notes: as for B3
# B7: HT220-M-G8 scFv (scFv)
# scFv: B3 scFv with K12M, T28S, Q39H, G57S, R77S, A184V, Y192D, Y206T, T209M, R215S
# notes: as for B3
# B8: HT220-M-D1 scFv (scFv)
# scFv: QMLLVQSGAEAKKPGASVKVSCKASGYTFTGHYMHWVRQAPGQGLEWMGWIDPVTGGTKYAQNFQGWVTMTRDTSIRTAYMELSRLRPDDTAMYYCAREVTGDRGQFDKWGQGTLVTVASASTKGPSVKLEEGEFSEARVQSVLTQPPSVSVVPGKTARIICGGNNIGSKSVHWYQQKPGQAPVLVIYNNSDRPSGIPERFSGSNSGNMATLTISRVEAGDESDYYCQVWDSSSDWVFGGGTRLTILGQSKAAPSVTLFPPS
# notes: as for B3
# Target: T1, 32-mer MUC1 peptide
# Assay: ELISA, IgG on coated 32-mer MUC1 peptide
# Description: (§1) This analysis was done using the ELISA technique wherein the 32-mer MUC1 peptide is immobilized in the wells of a microtitre plate, and wherein the anti-MUC1 antibodies are added later in different concentrations.
row,Binder,fold stronger binding than R764-G2 and R764-hHMFG1
1,B1,10 times
2,B2,10 times

# Target: T2, MUC1 peptide (15 aa+cystein, …)
# Assay: SPR, scFv over immobilized MUC1 peptide, Chip 2 (14 RU)
Ka,Kd,koff,kon,Binder
6.3e+08 M⁻¹,1.6 nM,0.00014 s⁻¹,90000 M⁻¹ s⁻¹,B3
1.5e+09 M⁻¹,–,–,–,B4
6.6e+08 M⁻¹,1.5 nM,0.00011 s⁻¹,73000 M⁻¹ s⁻¹,B5

# Target: T2, MUC1 peptide (15 aa+cystein, …)
# Assay: SPR, scFv 2-200 nM over immobilized MUC1 peptide, Chip 1 (47 RU)
Ka,Kd,koff,kon,Binder
7.5e+08 M⁻¹,1.3 nM,4.6e-05 s⁻¹,35000 M⁻¹ s⁻¹,B3
1.8e+09 M⁻¹,0.57 nM,2.1e-05 s⁻¹,38000 M⁻¹ s⁻¹,B4
4.8e+08 M⁻¹,2.1 nM,0.0001 s⁻¹,49000 M⁻¹ s⁻¹,B6
2.3e+08 M⁻¹,4.4 nM,0.00022 s⁻¹,50000 M⁻¹ s⁻¹,B7
1e+09 M⁻¹,1 nM,7.2e-05 s⁻¹,72000 M⁻¹ s⁻¹,B5
2.8e+08 M⁻¹,3.7 nM,0.00011 s⁻¹,29000 M⁻¹ s⁻¹,B8

# Target: T2, MUC1 peptide (15 aa+cystein, …)
# Assay: SPR, scFv over immobilized MUC1 peptide, Chip 2 (14 RU); Chip 2 (14 RU MUC1 peptide)
row,Kd,Binder
1,0.65 nM,B4

# Target: T1, 32-mer MUC1 peptide
# Assay: ELISA, 32-mer MUC1 peptide immobilized in microtitre wells, IgG about 0.03 to 8000 ng/well, A450-A620 (preliminary results according to the legend)
# Description: as §1
row,Binder,EC50 (read off the curve)
1,B1,~10 ng/well
2,B2,~10 ng/well

# Target: T1, 32-mer MUC1 peptide
# Assay: titration ELISA, MUC1 peptide (32mer Cys) 50 ng/well, IgG diluted 1:3.16 from 100 µg/mL, detection goat anti-human IgG (Fc) HRP, TMB; mean of three plates, BSA value subtracted; A450-A620
# Description: 3× Nunc Maxisorp plates coated with 50 ng/well MUC1 peptide antigen (32mer cys, sequence: […]) [0227] Control plate was coated with 100 ng/well BSA [0228] Blocking solution: 2% skim milk powder in PBS-T (0.1% Tween), 1 h, RT [0229] IgG samples were diluted to a final concentration of 100 μg/ml with blocking solution [0230] samples were sequentially diluted 1:3.16 [0231] detection: goat anti-human IgG (Fc spec) HRP conjugate (Sigma, 1:39000), 1 h, RT [0232] Development: TMB substrate, reaction stopped with sulfuric acid after 10 minutes. [0233] A450-A620 measured in a Tecan Sunrise Reader [0234] […] Mean value and standard deviation of three plates (MUC1) calculated [0236] BSA value (negative control) subtracted from mean value [0237] Plotting: [0238]
row,Binder,EC50 (read off the curve)
1,B1,~0.1 µg/mL
2,B2,~0.1 µg/mL
